Measurements: patent publication US20140363865A1, “SUPPLEMENTATION OF FATTY ACIDS FOR IMPROVING ALCOHOL PRODUCTIVITY” (BUTAMAX ADVANCED BIOFUELS LLC, priority 2010, published 2014)
Values belong to the molecule of their own block, whether it stands above or below them.

Assays:
[1] = tested on: S. cerevisiae culture; conditions: cerulenin added to the culture; cited from earlier work
[2] = Heat inactivation of lipase in lipase-treated liquefied corn mash mixed with oleyl alcohol (Example 22); assay type: biochemical
Protocol: Tap water (918.4 g) was added to a jacketed 2-L resin kettle, then 474.6 g wet weight (417.6 g dry weight) of ground whole corn kernels (1.0 mm screen on hammer mill) was added with stirring. The mixture was heated to 55° C. with stirring at 300 rpm, and the pH adjusted to 5.8 with 2 N sulfuric acid. To the mixture was added 14.0 g of an aqueous solution containing 0.672 g of Spezyme®-FRED L (Genencor®, Palo Alto, Calif.), and the temperature of the mixture increased to 85° C. with stirring at 600 rpm and pH 5.8. After 120 minutes at 85° C., the mixture was cooled to 50° C. and 45.0 mL aliquots of the resulting liquefied corn mash were transferred to 50-mL polypropylene centrifuge tubes and stored frozen at −80° C.
In a first reaction, 50 g of liquefied corn mash prepared as described above was mixed with 10 ppm Lipolase® 100 L (Novozymes) for 6 h at 55° C. and with no inactivation of lipase at 85° C. for 1 h, the mixture was cooled to 30° C. In a second reaction, 50 g of liquefied corn mash was mixed with 10 ppm Lipolase® for 6 h at 55° C., then heated to 85° C. for 1 h (lipase inactivation), then cooled to 30° C. In a third reaction, 50 g of liquefied corn mash without added lipase was mixed for 6 h at 55° C., and with no heating at 85° C. for 1 h, the mixture was cooled to 30° C., 38 g of oleyl alcohol was added, and the resulting mixture stirred for 73 h at 30° C. In a fourth reaction, 50 g of liquefied corn mash without added lipase was mixed for 6 h at 55° C., then heated to 85° C. for 1 h, then cooled to 30° C. Each of the four reaction mixtures was sampled at 6 h, then 38 g of oleyl alcohol added, and the resulting mixtures stirred at 30° C. and sampled at 25 h and 73 h. Samples (both liquefied mash and oleyl alcohol (OA)) were analyzed for wt % lipid (derivatized as fatty acid methyl esters, FAME) and for wt % free fatty acid (FFA, derivatized as fatty acid methyl esters, FAME) according to the method described by Reference 1.

[3] = Lipase screening for treatment of ground whole corn kernels prior to liquefaction (Example 25); assay type: biochemical; conditions: 55° C., pH 5.8
Protocol: Seven reaction mixtures containing tap water (67.9 g) and ground whole corn kernels (35.1 g wet wt., ground with 1.0 mm screen using a hammer mill) at pH 5.8 were stirred at 55° C. in stoppered flasks. A 3-mL sample (t=0 h) was removed from each flask and the sample immediately frozen on dry ice, then ca. 0.5 mL of 10 mM sodium phosphate buffer (pH 7.0) containing 1 mg total soluble protein (10 ppm final concentration in reaction mixture) of one of the following lipases (Novozymes) were added to one of each flask: Lipolase® 100 L, Lipex® 100L, Lipoclean® 2000T, Lipozyme® CALB L, Novozyme® CALA L, and Palatase 20000L; no lipase was added to the seventh flask. The resulting mixtures were stirred at 55° C. in stoppered flasks, and 3-mL samples were withdrawn from each reaction mixture at 1 h, 2 h, 4 h and 6 h and immediately frozen in dry ice until analyzed for wt % lipid (derivatized as fatty acid methyl esters, FAME) and for wt % free fatty acid (FFA, derivatized as fatty acid methyl esters, FAME) according to the method described by Reference 1, and the percent free fatty acid content was calculated relative to the total combined concentrations of lipid and free fatty acid was determined for each sample.

[4] = Lipase treatment of ground whole corn kernels prior to liquefaction, then mixing with oleyl alcohol (Example 24); assay type: biochemical
Protocol: Tap water (1377.6 g) was added into each of two jacketed 2-L resin kettles, then 711.9 g wet weight (625.8 g dry weight) of ground whole corn kernels (1.0 mm screen on hammer mill) was added to each kettle with stirring. Each mixture was heated to 55° C. with stirring at 300 rpm, and the pH adjusted to 5.8 with 2 N sulfuric acid. To each mixture was added 21.0 g of an aqueous solution containing 1.008 g of Spezyme®-FRED L (Genencor®, Palo Alto, Calif.). To one mixture was then added 10.5 mL of aqueous solution of Lipolase® 100L Solution (21 mg total soluble protein, 10 ppm lipase final concentration) and to the second mixture was added 1.05 mL of aqueous solution of Lipolase® 100L Solution (2.1 mg total soluble protein, 1.0 ppm lipase final concentration). Samples were withdrawn from each reaction mixture at 1 h, 2 h, 4 h and 6 h at 55° C., then the temperature of the mixture was increased to 85° C. with stirring at 600 rpm and pH 5.8, and a sample was taken when the mixture first reached 85° C. After 120 minutes at 85° C., a sample was taken and the mixtures were cooled to 50° C. and final samples of the resulting liquefied corn mash were transferred to 50-mL polypropylene centrifuge tubes; all samples were stored frozen at −80° C.
In two separate reactions, a 50 g sample of the 10 ppm lipase-treated liquefied corn mash or a 55 g sample of the 1.0 ppm lipase-treated liquefied corn mash prepared as described above was mixed with oleyl alcohol (OA) (38 g) at 30° C. for 20 h, then the liquefied mash and OA in each reaction mixture were separated by centrifugation and each phase analyzed for wt % lipid (derivatized as fatty acid methyl esters, FAME) and for wt % free fatty acid (FFA, derivatized as fatty acid methyl esters, FAME) according to the method described by Reference 1. The % FFA in the OA phase of the liquefied mash/OA mixture prepared using heat inactivation of 10 ppm lipase during liquefaction was 98% at 20 h, compared to only 62% FFA in the OA phase of the liquefied mash/OA mixture prepared using heat inactivation of 1.0 ppm lipase during liquefaction.

[5] = 0 h (sample before lipase addition)

Molecule: C/C=C/C/C=C/CCC(=O)[C@H]1O[C@H]1C(N)=O [Cerulenin, cerulenin]
growth of S. cerevisiae culture [1]: inhibition of the growth

% FFA ([2]; 10 ppm active lipase, no 85° C. heat treatment, 6 h, liq. mash): 89%
% FFA ([2]; 10 ppm active lipase, no 85° C. heat treatment, 25 h, OA): 40%
% FFA ([2]; 10 ppm active lipase, no 85° C. heat treatment, 25 h, liq. mash): 20%
% FFA ([2]; 10 ppm active lipase, no 85° C. heat treatment, 73 h, OA): 21%
% FFA ([2]; 10 ppm active lipase, no 85° C. heat treatment, 73 h, liq. mash): 18%
% FFA ([2]; 10 ppm inactive lipase, 85° C. heat treatment, 6 h, liq. mash): 89%
% FFA ([2]; 10 ppm inactive lipase, 85° C. heat treatment, 25 h, OA): 99%
% FFA ([2]; 10 ppm inactive lipase, 85° C. heat treatment, 25 h, liq. mash): 53%
% FFA ([2]; 10 ppm inactive lipase, 85° C. heat treatment, 73 h, OA): 95%
% FFA ([2]; 10 ppm inactive lipase, 85° C. heat treatment, 73 h, liq. mash): 62%
% FFA [3, 5]: 33%
% FFA ([3]; 1 h, 10 ppm lipase): 56%
% FFA ([3]; 2 h, 10 ppm lipase): 74%
% FFA ([3]; 4 h, 10 ppm lipase): 76%
% FFA ([3]; 6 h, 10 ppm lipase): 79%
% FFA ([4]; 1.0 ppm lipase at 55° C., 1 h, pre-liquefaction): 54%
% FFA ([4]; 1.0 ppm lipase at 55° C., 2 h, pre-liquefaction): 51%
% FFA ([4]; 1.0 ppm lipase at 55° C., 4 h, pre-liquefaction): 58%
% FFA ([4]; 1.0 ppm lipase at 55° C., 6 h, pre-liquefaction): 57%
% FFA ([4]; 1.0 ppm lipase, 0 h, 85° C., liq. mash): 49%
% FFA ([4]; 1.0 ppm lipase, 2 h, 85° C., liq. mash): 50%
% FFA ([4]; 1.0 ppm lipase, mix with OA, 20 h, 30° C., OA): 62%
% FFA ([4]; 1.0 ppm lipase, mix with OA, 20 h, 30° C., liq. mash): 20%
% FFA ([4]; 10 ppm lipase at 55° C., 1 h, pre-liquefaction): 74%
% FFA ([4]; 10 ppm lipase at 55° C., 2 h, pre-liquefaction): 77%
% FFA ([4]; 10 ppm lipase at 55° C., 4 h, pre-liquefaction): 82%
% FFA ([4]; 10 ppm lipase at 55° C., 6 h, pre-liquefaction): 87%
% FFA ([4]; 10 ppm lipase, 0 h, 85° C., liq. mash): 86%
% FFA ([4]; 10 ppm lipase, 2 h, 85° C., liq. mash): 85%
% FFA ([4]; 10 ppm lipase, mix with OA, 20 h, 30° C., OA): 98%
% FFA ([4]; 10 ppm lipase, mix with OA, 20 h, 30° C., liq. mash): 48%
B1: Lipolase ® 100 L: commercial lipase preparation available from Novozymes (protein, UniProt O59952 23-291, looked up)
Lipase: EVSQDLFNQFNLFAQYSAAAYCGKNNDAPAGTNITCTGNACPEVEKADATFLYSFEDSGVGDVTGFLALDNTNKLIVLSFRGSRSIENWIGNLNFDLKEINDICSGCRGHDGFTSSWRSVADTLRQKVEDAVREHPDYRVVFTGHSLGGALATVAGADLRGNGYDIDVFSYGAPRVGNRAFAEFLTVQTGGTLYRITHTNDIVPRLPPREFGYSHSSPEYWIKSGTLVPVTRNDIVKIEGIDATGGNNQPNIPDIPAHLWYFGLIGTCL

% FFA [3, 5]: 37%
% FFA ([3]; 1 h, 10 ppm lipase): 49%
% FFA ([3]; 2 h, 10 ppm lipase): 59%
% FFA ([3]; 4 h, 10 ppm lipase): 62%
% FFA ([3]; 6 h, 10 ppm lipase): 66%
B2: Palatase ® 20000 L: commercial lipase preparation available from Novozymes (protein, UniProt P19515 95-363, looked up)
Lipase: SIDGGIRAATSQEINELTYYTTLSANSYCRTVIPGATWDCIHCDATEDLKIIKTWSTLIYDTNAMVARGDSEKTIYIVFRGSSSIRNWIADLTFVPVSYPPVSGTKVHKGFLDSYGEVQNELVATVLDQFKQYPSYKVAVTGHSLGGATALLCALDLYQREEGLSSSNLFLYTQGQPRVGDPAFANYVVSTGIPYRRTVNERDIVPHLPPAAFGFLHAGEEYWITDNSPETVQVCTSDLETSDCSNSIVPFTSVLDHLSYFGINTGLCT
